Positions of bridges follow the written chain, without caps; N, C: chain ends. Non-standard residues stand in square brackets, D forms with d. No end group written: not given here. Aib = CC(C)(N)C(=O)O
T1: IGFBP-1 (human, UniProt P08833 26-259)
T1 construct: Biotinylated in the ELISA assays; also called rhIGFBP-1
T1 sequence (looked up): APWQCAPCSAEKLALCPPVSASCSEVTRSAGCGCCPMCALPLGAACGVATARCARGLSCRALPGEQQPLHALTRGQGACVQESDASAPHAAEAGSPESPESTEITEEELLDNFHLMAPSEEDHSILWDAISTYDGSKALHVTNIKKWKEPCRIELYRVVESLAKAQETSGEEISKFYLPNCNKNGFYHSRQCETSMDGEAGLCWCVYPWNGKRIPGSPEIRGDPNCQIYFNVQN

B1: bp1-02 (peptide)
peptide: SEVGCRAGPLQWLCEKYFG-NH2
modifications: disulfide 5-14; N-terminus assumed
SMILES: CC(C)C[C@@H]1NC(=O)[C@H](Cc2c[nH]c3ccccc23)NC(=O)[C@H](CCC(N)=O)NC(=O)[C@H](CC(C)C)NC(=O)[C@@H]2CCCN2C(=O)CNC(=O)[C@H](C)NC(=O)[C@H](CCCNC(=N)N)NC(=O)[C@@H](NC(=O)CNC(=O)[C@@H](NC(=O)[C@H](CCC(=O)O)NC(=O)[C@@H](N)CO)C(C)C)CSSC[C@@H](C(=O)N[C@@H](CCC(=O)O)C(=O)N[C@@H](CCCCN)C(=O)N[C@@H](Cc2ccc(O)cc2)C(=O)N[C@@H](Cc2ccccc2)C(=O)NCC(N)=O)NC1=O
notes: 19-mer variant of bp1-01
B2: bp1-01 R2A (peptide)
peptide: CAAGPLQWLCEKYFG
modifications: disulfide 1-10 (inferred)
notes: Ala-scan variant of bp1-01; termini and disulfide not restated
B3: bp1-01 E11aib (peptide)
peptide: CRAGPLQWLC[Aib]KYFG
modifications: disulfide 1-10
notes: Non-natural variant of bp1-01; X stands for aib
B4: bp1-01 F14aib (peptide)
peptide: CRAGPLQWLCEKY[Aib]G
modifications: disulfide 1-10
notes: as for B3
B5: bp1-01 R2a (peptide)
peptide: C[dA]AGPLQWLCEKYFG
modifications: disulfide 1-10
notes: Non-natural variant of bp1-01 (a = D-alanine)
B6: bp1-01 K12aib (peptide)
peptide: CRAGPLQWLCE[Aib]YFG
modifications: disulfide 1-10
notes: as for B3
B7: bp1-01 L6a (peptide)
peptide: CRAGP[dA]QWLCEKYFG
modifications: disulfide 1-10
notes: as for B5
B8: bp1-01 L9aib (peptide)
peptide: CRAGPLQW[Aib]CEKYFG
modifications: disulfide 1-10
notes: as for B3
B9: bp1-01 Y13aib (peptide)
peptide: CRAGPLQWLCEK[Aib]FG
modifications: disulfide 1-10
notes: as for B3
B10: bp1-01 W8aib (peptide)
peptide: CRAGPLQ[Aib]LCEKYFG
modifications: disulfide 1-10
notes: as for B3
B11: bp1-01 Q7 aib (peptide)
peptide: CRAGPL[Aib]WLCEKYFG
modifications: disulfide 1-10
notes: as for B3
B12: bp1-01 G4a (peptide)
peptide: CRA[dA]PLQWLCEKYFG
modifications: disulfide 1-10
notes: as for B5

Molecular target: T2, IGFBP-3 (human, UniProt P17936 28-291)
T2 construct: also called rhIGFBP-3
T2 sequence (P17936 28-291 limits assumed): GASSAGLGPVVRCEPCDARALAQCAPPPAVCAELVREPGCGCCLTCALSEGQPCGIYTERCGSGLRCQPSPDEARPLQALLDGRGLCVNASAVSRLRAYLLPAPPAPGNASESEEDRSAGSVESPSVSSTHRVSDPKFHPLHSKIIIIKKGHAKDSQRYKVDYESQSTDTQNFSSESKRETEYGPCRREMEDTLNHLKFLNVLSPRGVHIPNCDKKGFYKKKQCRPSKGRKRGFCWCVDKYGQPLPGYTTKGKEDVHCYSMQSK
Assay: BIAcore competition: peptide inhibits IGFBP-3 binding to immobilized IGF-I

IC50 | Binder
0.72 µM | SEEVCWPVAEWYLCN (also called BP15) [bp3-15]
4 µM | GPETCWPVAEWYLCN (bp3-01-ox variant) [bp3-41]
5.6 µM | ASEEVCWPVAEWYLCNMWGR [4d3.3]
5.6 µM | ASEEVCWPVAEWYLCN (bp3-01-ox variant) [bp3-30]
46 µM | CWPVAEWYLCN [bp3-25 (SEQ ID NO:106)]
5.4 µM | EEVCWPVAEWYLCN (bp3-01-ox variant) [bp3-28]
2.8 µM | EVCWPVAEWYLCN (bp3-01-ox variant) [bp3-27]

Molecular target: T1, IGFBP-1
Assay: ELISA plate assay: peptide inhibits IGFBP-1 binding to IGF-I; ratio to bp1-01 (wt)

IC50 (mut)/IC50 (wt) | Binder
0.68 ratio | CAAGPLQWLCEKYF (g8 bp1-01 selectant) [bp1-15]
1.7 ratio | CREGPLQWLCERFF (g8 bp1-01 selectant) [bp1029]
0.34 ratio | CRAGPLQWLCERYF (g8 bp1-01 selectant) [bp67]
4.6 ratio | CRAGPLQWLCERFF (g8 bp1-01 selectant) [bp1028]
0.39 ratio | CRAGPLQWLCEKFF (g8 bp1-01 selectant) [bp68]
0.37 ratio | B1
8.8 ratio | CKAGPLLWLCERFF (g8 bp1-01 selectant) [bp1027]
4.3 ratio | CKEGPLLWLCERFF (g8 bp1-01 selectant) [bp1030]

Molecular target: T2, IGFBP-3
Assay: BIAcore competition: peptide inhibits IGFBP-3 binding to IGF-I; ratio to bp3-01-ox

IC50 (mut)/IC50 (wt) | Binder
0.36 ratio | SEEVCWPVAEWYLCN (also called BP15) [bp3-15]
0.33 ratio | SEEVCWPVAEWYLCN-NH2 (disulfide 5-14 (inferred)) [bp3-39]
> 500 ratio | WPVAEWYLCN [bp3-24 (SEQ ID NO:107)]
2 ratio | GPETCWPVAEWYLCN (bp3-01-ox variant) [bp3-41]
2.8 ratio | ASEEVCWPVAEWYLCNMWGR [4d3.3]
2.8 ratio | ASEEVCWPVAEWYLCN (bp3-01-ox variant) [bp3-30]
23 ratio | CWPVAEWYLCN [bp3-25 (SEQ ID NO:106)]
2.7 ratio | EEVCWPVAEWYLCN (bp3-01-ox variant) [bp3-28]
1.4 ratio | EVCWPVAEWYLCN (bp3-01-ox variant) [bp3-27]
0.33 ratio | Ac-SEEVCWPVAEWYLCN-NH2 (disulfide 5-14 (inferred)) [bp3-40]

Molecular target: T1, IGFBP-1
Assay: BIAcore competition: peptide inhibits IGFBP-1 binding to IGF-I; ratio to bp1-01 (wt)

IC50 (mut)/IC50 (wt) | Binder
2.9 ratio | CRAGPLQWLCAKYFG (Ala-scan variant of bp1-01) [bp1-01 E11A]
6.2 ratio | CRAGPLQWLCEKYAG (Ala-scan variant of bp1-01) [bp1-01 F14A]
7.9 ratio | CRAGPLQWLCEAYFG (Ala-scan variant of bp1-01) [bp1-01 K12A]
12.5 ratio | CRAGPLQWLCEKAFG (Ala-scan variant of bp1-01) [bp1-01 Y13A]
7.4 ratio | CRAGPLQALCEKYFG (Ala-scan variant of bp1-01) [bp1-01 W8A]
0.7 ratio | CRAGPLAWLCEKYFG (Ala-scan variant of bp1-01) [bp1-01 Q7A]
33.2 ratio | CRAGPLQWACEKYFG (Ala-scan variant of bp1-01) [bp1-01 L9A]
30.3 ratio | CRAGPAQWLCEKYFG (Ala-scan variant of bp1-01) [bp1-01 L6A]
0.9 ratio | B2

Molecular target: T1, IGFBP-1
Assay: BIAcore competition: peptide inhibits IGFBP-1 binding to IGF-II; ratio to bp1-01 (wt)

IC50 (mut)/IC50 (wt) | Binder
2.4 ratio | CRAGPLQWLCAKYFG (Ala-scan variant of bp1-01) [bp1-01 E11A]
5.8 ratio | CRAGPLQWLCEKYAG (Ala-scan variant of bp1-01) [bp1-01 F14A]
5.3 ratio | CRAGPLQWLCEAYFG (Ala-scan variant of bp1-01) [bp1-01 K12A]
14.6 ratio | CRAGPLQWLCEKAFG (Ala-scan variant of bp1-01) [bp1-01 Y13A]
6.4 ratio | CRAGPLQALCEKYFG (Ala-scan variant of bp1-01) [bp1-01 W8A]
0.6 ratio | CRAGPLAWLCEKYFG (Ala-scan variant of bp1-01) [bp1-01 Q7A]
29.7 ratio | CRAGPLQWACEKYFG (Ala-scan variant of bp1-01) [bp1-01 L9A]
34.7 ratio | CRAGPAQWLCEKYFG (Ala-scan variant of bp1-01) [bp1-01 L6A]
0.9 ratio | B2

Molecular target: T1, IGFBP-1
Assay: biotinylated-IGFBP-1 ELISA: peptide inhibits IGFBP-1 binding to IGF-I; ratio to bp1-01 (wt)

IC50 (mut)/IC50 (wt) | Binder
1 ratio | B3
3 ratio | B4
50 ratio | B5
2 ratio | B6
400 ratio | B7
400 ratio | B8
34 ratio | CR[dA]GPLQWLCEKYFG (disulfide 1-10 (inferred)) [bp1-01 A3a]
7.1 ratio | B9
24 ratio | B10
1.6 ratio | B11
0.6 ratio | B12
